Test results published in US20230143604A1, “QW DOSING OF GIP RECEPTOR AGONIST PEPTIDE COMPOUNDS AND USES THEREOF” (TAKEDA PHARMACEUTICAL COMPANY LIMITED, priority 2020, published 2023).
Starred links: 1 amine or outer side, 2 acyl side, 3 side chain; linkers in the order of their positions; H or OH if unused. Non-standard residues stand in square brackets, D forms with d. Groups on a side chain read outwards from the residue. No end group written: not given here. *: point of attachment. C18 diacid = O=C(O)CCCCCCCCCCCCCCCCC(=O)*; C17 diacid = O=C(O)CCCCCCCCCCCCCCCC(=O)*; γGlu = O=C(O)[C@H](CCC(=O)[*:2])N[*:1]; NMeY = CN[C@@H](Cc1ccc(O)cc1)C(=O)O; Stearoyl = CCCCCCCCCCCCCCCCCC(=O)*; AEEA = NCCOCCOCC(=O)O; E∗ = not defined here; K∗ = not defined here; Aib = CC(C)(N)C(=O)O

T1: full-length human GIPR with an N-terminal FLAG tag, overexpressed on HEK-293T cells (human, UniProt P48546 22-466)
T1 sequence (looked up): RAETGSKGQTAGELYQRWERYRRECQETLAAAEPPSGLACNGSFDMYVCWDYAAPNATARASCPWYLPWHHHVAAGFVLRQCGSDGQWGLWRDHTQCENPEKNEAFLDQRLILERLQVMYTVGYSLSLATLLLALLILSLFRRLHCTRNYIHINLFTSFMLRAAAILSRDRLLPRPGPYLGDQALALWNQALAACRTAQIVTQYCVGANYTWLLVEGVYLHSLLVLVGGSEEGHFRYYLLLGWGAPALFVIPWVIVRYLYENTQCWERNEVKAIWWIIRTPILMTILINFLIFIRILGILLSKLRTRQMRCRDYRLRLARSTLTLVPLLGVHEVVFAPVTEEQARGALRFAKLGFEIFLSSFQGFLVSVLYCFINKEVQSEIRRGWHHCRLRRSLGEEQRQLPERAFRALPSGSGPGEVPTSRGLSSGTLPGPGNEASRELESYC

B1: Compound No. 185 (peptide)
peptide: YXEGTFISDYSIALDRXHQXNFVNELLKQXPSSGAPPPS
modifications: N-terminal Me (Me-Tyr 1); Aib at 2, 17, 20; E* at 25 and K* at 28 (mark * as printed, not explained); Km at 30 = Lys(2OEGgE-C18DA); C-terminus NH2
B2: Compound No. 183 (peptide)
peptide: Me-Y[Aib]EGTFISDYSIALDR[E∗]HQ[K∗]NFVNWLLAQK([AEEA-AEEA-γGlu-C18 diacid])PSSGAPPPS-NH2
modifications: not fully specified (residue 1); reading uncertain; also: E* at 17 and K* at 20 marked, meaning not given here
B3: Compound No. 182 (peptide)
peptide: Me-Y[Aib]EGTFISDYSIALDR[Aib]HQ[E∗]NF[K∗]NWLLAQK([AEEA-AEEA-γGlu-C18 diacid])PSSGAPPPS-NH2
modifications: not fully specified (residue 1); reading uncertain; also: E* at 20 and K* at 23 marked, meaning not given here

molecular target: T1, full-length human GIPR with an …; assay: cell-based or functional assay

Binder | Human GIPR cAMP EC50, HEK293T
[NMeY][Aib]EGTFISDYSIALDRIHQQNFVNWLLAQK([AEEA-AEEA-γGlu-C18 diacid])PSSGAPPPS-NH2 [Compound No. 190] | 0.0005 nM
[NMeY][Aib]EGTFISDYSI[Aib]LDR[Aib]HQ[Aib]K([AEEA-AEEA-γGlu-γGlu-C18 diacid])FVNWLLAQRG-OH [Compound No. 201] | 0.0009 nM
B1 | 0.001 nM
[NMeY][Aib]EGTFISDYSI[Aib]LDR[Aib]AQ[Aib]K([AEEA-γGlu-γGlu-C18 diacid])FVNWLLAQRG-OH [Compound No. 207] | 0.0004 nM
[NMeY][Aib]EGTFISDYSI[Aib]LDR[Aib]AQ[Aib]K([AEEA-AEEA-γGlu-γGlu-Stearoyl])FVNWLLAQRG-OH [Compound No. 202] | 0.0042 nM
Me-Y[Aib]EGTFISDYSIALDRAAQQK([AEEA-AEEA-γGlu-γGlu-C18 diacid])FVNWLLAQSPG-OH [Compound No. 178] | 0.0006 nM
B2 | 0.0007 nM
Y[Aib]EGTFISDYSIAK([AEEA-AEEA-γGlu-C18 diacid])DKIHQQDFVNWLLAQKGKKNDWKHNITQ-OH [Compound No. 187] | 0.0032 nM
[NMeY][Aib]EGTFISDYSIALDR[Aib]HQQNFVNWLLAQK([AEEA-AEEA-γGlu-C18 diacid]) [Compound No. 191] | 0.0032 nM
B3 | 0.0525 nM
[NMeY][Aib]EGTFISDYSI[Aib]LDR[Aib]AQ[Aib]K([AEEA-AEEA-γGlu-γGlu-C18 diacid])FVNWLLAQRG-NH2 [Compound No. 204] | 0.0003 nM
[NMeY][Aib]EGTFISDYSI[Aib]LDR[Aib]AA[Aib]K([AEEA-AEEA-γGlu-γGlu-C18 diacid])FVNWLLAQRG-OH [Compound No. 212] | 0.0003 nM
[NMeY][Aib]EGTFISDYSIALDR[Aib]AQ[Aib]K([AEEA-AEEA-γGlu-γGlu-C17 diacid])FVNWLLAQKG-OH [Compound No. 200] | 0.0006 nM
Me-Y[Aib]EGTFISDYSIALDRIAQQK([AEEA-AEEA-γGlu-γGlu-C18 diacid])FVNWLLAQSPSSGAPPPS-OH [Compound No. 177] | 0.0003 nM
Y[Aib]EGTFISDYSIAMDKK([AEEA-AEEA-γGlu-C18 diacid])HQQDFVNWLLAQKGKKNDWKHNITQ-OH [Compound No. 188] | 0.0019 nM

molecular target: full-length human GLP-1R with an N-terminal FLAG tag, overexpressed on HEK-293T cells (human, UniProt P43220 24-463); assay: cell-based or functional assay

Binder | Human GLP1R cAMP EC50, HEK293T
[NMeY][Aib]EGTFISDYSIALDRIHQQNFVNWLLAQK([AEEA-AEEA-γGlu-C18 diacid])PSSGAPPPS-NH2 [Compound No. 190] | 97.7 nM
[NMeY][Aib]EGTFISDYSI[Aib]LDR[Aib]HQ[Aib]K([AEEA-AEEA-γGlu-γGlu-C18 diacid])FVNWLLAQRG-OH [Compound No. 201] | 61.7 nM
B1 | 1000 nM
[NMeY][Aib]EGTFISDYSI[Aib]LDR[Aib]AQ[Aib]K([AEEA-γGlu-γGlu-C18 diacid])FVNWLLAQRG-OH [Compound No. 207] | 36.3 nM
[NMeY][Aib]EGTFISDYSI[Aib]LDR[Aib]AQ[Aib]K([AEEA-AEEA-γGlu-γGlu-Stearoyl])FVNWLLAQRG-OH [Compound No. 202] | 2.51 nM
Me-Y[Aib]EGTFISDYSIALDRAAQQK([AEEA-AEEA-γGlu-γGlu-C18 diacid])FVNWLLAQSPG-OH [Compound No. 178] | 186 nM
B2 | 162 nM
Y[Aib]EGTFISDYSIAK([AEEA-AEEA-γGlu-C18 diacid])DKIHQQDFVNWLLAQKGKKNDWKHNITQ-OH [Compound No. 187] | 562 nM
[NMeY][Aib]EGTFISDYSIALDR[Aib]HQQNFVNWLLAQK([AEEA-AEEA-γGlu-C18 diacid]) [Compound No. 191] | 97.7 nM
B3 | 214 nM
[NMeY][Aib]EGTFISDYSI[Aib]LDR[Aib]AQ[Aib]K([AEEA-AEEA-γGlu-γGlu-C18 diacid])FVNWLLAQRG-NH2 [Compound No. 204] | 6.61 nM
[NMeY][Aib]EGTFISDYSI[Aib]LDR[Aib]AA[Aib]K([AEEA-AEEA-γGlu-γGlu-C18 diacid])FVNWLLAQRG-OH [Compound No. 212] | 42.7 nM
[NMeY][Aib]EGTFISDYSIALDR[Aib]AQ[Aib]K([AEEA-AEEA-γGlu-γGlu-C17 diacid])FVNWLLAQKG-OH [Compound No. 200] | 77.6 nM
Me-Y[Aib]EGTFISDYSIALDRIAQQK([AEEA-AEEA-γGlu-γGlu-C18 diacid])FVNWLLAQSPSSGAPPPS-OH [Compound No. 177] | 100 nM
Y[Aib]EGTFISDYSIAMDKK([AEEA-AEEA-γGlu-C18 diacid])HQQDFVNWLLAQKGKKNDWKHNITQ-OH [Compound No. 188] | 132 nM
